Test results reported in US20160108098A1 (GlaxoSmithKline, published 2016).
Where no end group is shown, it is not given here.

biological target: T1, human Neuropeptide Y receptor type 2 (human, UniProt P49146 1-381); assay: cell-based or functional assay
T1 sequence (looked up): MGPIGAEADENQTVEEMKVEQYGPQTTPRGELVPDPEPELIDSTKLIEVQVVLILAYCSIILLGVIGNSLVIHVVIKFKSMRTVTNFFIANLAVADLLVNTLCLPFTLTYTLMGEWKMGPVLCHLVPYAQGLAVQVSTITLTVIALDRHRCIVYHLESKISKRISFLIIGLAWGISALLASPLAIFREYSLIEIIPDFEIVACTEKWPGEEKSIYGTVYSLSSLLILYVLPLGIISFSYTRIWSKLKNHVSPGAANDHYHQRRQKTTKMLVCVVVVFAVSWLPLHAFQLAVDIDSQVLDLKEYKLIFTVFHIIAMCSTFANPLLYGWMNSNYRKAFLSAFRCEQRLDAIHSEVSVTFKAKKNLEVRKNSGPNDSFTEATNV

Row | Binder | hNPY Y2 pEC50
1 | PKPEAPGKDASPEELNRYYASLRKYLNWLTRQRY-NH2 [Example 2] | 9.8 pEC50
2 | PKPEAPGKDASPEELNRYYASLRKYLNWVTRQRY-NH2 [Example 31] | 9.8 pEC50
3 | PKPEHPGKDASPEEWNRYYASLRKYLNWVTRQRY-NH2 [Example 25] | 9.6 pEC50

biological target: T1, human Neuropeptide Y receptor type 2; assay: cell-based or functional assay; remark: another data set of the same source

Row | Binder | hNPY Y2 pEC50
4 | IKPPYPGCDASPEEQNKYYASLRAYWNLVTRQRY-NH2 [Peptide 8] | 9.3 pEC50
5 | PKPEAPLSKQLEEEAVRYYASLRHYLNLVTRQRY-NH2 [Peptide 21] | 8.7 pEC50
6 | PKPEAPGCDASPEEWNRYYASLRKYLNWVTRQNY-NH2 [Peptide 1] | 7.9 pEC50
7 | PKPVAPGCDASPAELNRQYSDLRNYWNLVTRQRY-NH2 [Peptide 15] | 8.9 pEC50
8 | IKPEAPLSKQLEEEAVRYYASLRHYLNLVTRQRY-NH2 [Peptide 2] | 8.6 pEC50
9 | PKPEAPGEDASPKEWNRYYASLRKYLNWVTRQRY-NH2 [Peptide 3] | 9.2 pEC50
10 | PKPEAPGCDASPEEWNRYYASLRKYLNWVTRQHY-NH2 [Peptide 14] | 8.2 pEC50
